What was measured:
[1] = target: Ca^2+/CaM-dependent kinase II α (CaMKIIα) holoenzyme (rodent) (UniProt P11275)
[2] = target: Ca^2+/CaM-dependent kinase II β (CaMKIIβ) holoenzyme (rodent) (UniProt P08413)
Chain of UniProt P08413 (P08413 whole entry): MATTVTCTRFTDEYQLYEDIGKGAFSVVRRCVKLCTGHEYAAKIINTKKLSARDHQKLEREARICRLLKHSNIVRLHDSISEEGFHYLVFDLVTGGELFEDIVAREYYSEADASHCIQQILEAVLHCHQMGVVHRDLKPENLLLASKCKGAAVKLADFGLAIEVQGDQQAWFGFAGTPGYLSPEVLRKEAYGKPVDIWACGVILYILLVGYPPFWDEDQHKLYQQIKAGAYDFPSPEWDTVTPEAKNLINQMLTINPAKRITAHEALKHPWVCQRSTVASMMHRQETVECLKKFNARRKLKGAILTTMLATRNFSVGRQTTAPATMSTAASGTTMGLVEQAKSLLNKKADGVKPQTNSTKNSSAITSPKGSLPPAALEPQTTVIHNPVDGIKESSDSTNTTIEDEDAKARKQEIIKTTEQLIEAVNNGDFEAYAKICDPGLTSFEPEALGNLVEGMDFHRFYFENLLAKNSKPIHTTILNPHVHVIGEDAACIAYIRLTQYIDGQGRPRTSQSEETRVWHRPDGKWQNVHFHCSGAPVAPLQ

Chain of UniProt P11275 (P11275 whole entry): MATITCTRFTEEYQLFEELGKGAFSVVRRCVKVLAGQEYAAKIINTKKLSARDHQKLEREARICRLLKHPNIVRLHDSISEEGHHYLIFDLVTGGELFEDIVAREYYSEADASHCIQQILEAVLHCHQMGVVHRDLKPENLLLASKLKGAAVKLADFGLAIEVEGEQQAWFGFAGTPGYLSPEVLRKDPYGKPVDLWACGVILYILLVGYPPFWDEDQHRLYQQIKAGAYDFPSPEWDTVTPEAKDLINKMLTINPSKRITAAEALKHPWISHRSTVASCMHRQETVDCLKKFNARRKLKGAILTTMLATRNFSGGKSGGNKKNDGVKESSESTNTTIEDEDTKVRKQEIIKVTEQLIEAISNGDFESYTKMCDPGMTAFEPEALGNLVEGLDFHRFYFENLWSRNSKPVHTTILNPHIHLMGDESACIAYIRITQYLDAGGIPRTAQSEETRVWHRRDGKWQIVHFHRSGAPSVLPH

Substance: Calmodulin (from UniProt P0DP23 1-149) (natural protein)
- EC50 of CaM for in vitro CaMKII kinase activity (phosphorylation of syntide-2; 0.6 nM to 6 μM CaM) [1]: 30.1 nM
- EC50 of CaM for in vitro CaMKII kinase activity (phosphorylation of syntide-2; 0.6 nM to 6 μM CaM) [2]: 14.6 nM
